# Assay results reported in paper doi:10.1101/2025.08.14.670363.
# What was measured:
# [1] = target: Rabbit skeletal muscle actin filaments (rabbit) (UniProt P68135); assay: high-speed atomic force microscopy; F-actin held on a mica-supported lipid bilayer (DPPC:DPTAP:biotin-cap-DPPE 89:10:1); actin-free XCAP1 or XCAP1-actin complex injected at 20-100 nM; 30 mM KCl, 10 mM imidazole-HCl pH 7.0, 1 mM MgCl2, 0.5 mM EGTA, 10 mM DTT, 10 % glycerol, 0.2 mM ATP; room temperature; dwell time of single particles
# [2] = target: actin-free Xenopus cyclase-associated protein 1 (Xenopus laevis); assay: as above
substance,measurement,setting,value
actin-free Xenopus cyclase-associated protein 1 (natural protein),dwell time,[1],0.2 s
same,dwell time (small particles of the XCAP1-actin complex preparation),[1],0.2 s
same,dwell time at the filament end,[1],0.24 s
same,dwell time at the filament side,[1],0.2 s
same,stoichiometry N,[2],4
